Drawing on patent publication US20210030841A1 (KEROS THERAPEUTICS, published 2021), this text covers binding result and Kd for two molecules.

As usually defined, the Kd is the concentration at which binding is half-saturated. Read a high Kd as lower affinity.

What all share (assay): SPR, Biacore 3000; receptor captured on chip, ligand in solution
For orientation: Surface plasmon resonance follows binding to a sensor surface in real time, without labels.

Experiment [1] deals with T1, growth differentiation factor 11 (GDF11) (UniProt O95390 299-407).
T1 construct: the embodiments speak of human GDF-11
T1 sequence (looked up): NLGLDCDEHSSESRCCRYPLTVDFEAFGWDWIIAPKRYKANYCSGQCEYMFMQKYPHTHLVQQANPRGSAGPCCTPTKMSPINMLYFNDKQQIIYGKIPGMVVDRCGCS
The text has this: (§1) The Biacore 3000 was used to measure the kinetics of the interactions between the ActRIIa variants and the ligands Activin A, Activin B, growth differentiation factor 11 (GDF11), and BMP-9. ActRIIa variants were transiently expressed in HEK293 cells and purified from the conditioned media using Protein-A Sepharose chromatography. The ActRIIa variants were immobilized on the chip (CM4 or CM5) with capture antibodies ([…]) in flow cells 2-4 to ensure proper orientation. Flow cell 1 was used as a reference cell to subtract any nonspecific binding and bulk effects. HBS-EP+ buffer from GE Healthcare™ was used as a running buffer. Each ligand was run in a concentration series at 40 μl/min to avoid mass transport effects. The data was analyzed using Scrubber2 by BioLogic™ Software to calculate the KD of each interaction (Table 5).

Another experiment concerns the target T2, Activin A (UniProt P08476 311-426).
T2 construct: the embodiments speak of human activin A
T2 sequence (looked up): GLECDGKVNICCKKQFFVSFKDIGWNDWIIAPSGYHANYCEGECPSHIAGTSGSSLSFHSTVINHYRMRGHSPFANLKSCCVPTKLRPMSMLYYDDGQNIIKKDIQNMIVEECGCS
Description: as §1

In a further experiment the target is T3, Activin B (UniProt P09529 293-407).
T3 construct: the embodiments speak of human activin B
T3 sequence (looked up): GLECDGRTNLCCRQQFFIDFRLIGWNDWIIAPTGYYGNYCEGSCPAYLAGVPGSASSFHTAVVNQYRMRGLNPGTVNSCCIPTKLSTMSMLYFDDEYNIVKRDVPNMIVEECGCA
Description: as §1

The next experiment deals with T4, BMP-9 (UniProt Q9UK05 320-429).
T4 construct: the embodiments speak of human BMP9; also called bone morphogenetic protein 9
T4 sequence (looked up): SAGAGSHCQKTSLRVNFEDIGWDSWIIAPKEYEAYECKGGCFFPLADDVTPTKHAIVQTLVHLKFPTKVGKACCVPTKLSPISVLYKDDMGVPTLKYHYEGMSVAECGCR
Description: as §1

B1: ActRIIa/b+ variant (SEQ ID NO: 150) (receptor, not shown: a dimerising Fc or GST)
chain: GAILGRSETQECLFYNANWELERTNQTGVERCEGEKDKRLHCYATWRNISGSIEIVAKGCWLDDFNCYDRTDCVETEENPQVYFCCCEGNMCNEKFSYFPEMEVTQPTS
Regarding B1, the binding result in experiment [1] is “binds”.

B2: ActRIIa/bΔ9 min variant (SEQ ID NO: 6) (receptor, not shown: a dimerising Fc or GST)
chain: AILGRSETQECLFYNANWELDRTNQTGVEPCEGEKDKRLHCFATWKNISGSIEIVKKGCWLDDINCYDRTDCVETKENPQVYFCCCEGNMCNEKFSYFPEMEVTQPTS
notes: Engineered variant of the human ActRIIa extracellular portion
Turning to B2, the Kd in the experiment with Activin A came to 0.31 nM; with Activin B, 0.088 nM; in experiment [1], 0.114 nM; in the experiment with BMP-9, 17 nM.
